Experimental data reported in PMC4597109 (Structure(London, England:1993), 2015).

Target: the molecule itself
Test: cryo-EM structure

B1: Barley stripe mosaic virus coat protein, in wild-type virions (wtBSMV) (natural protein)
chain: MPNVSLTAKGGGHYIEDQWDTQVVEAGVFDDWWVHVEAWNKFLDNLRGINFSVASSRSQVAEYLAALDRDLPADVDRRFAGARGQIGSPNYLPAPKFFRLDKRTIAELTRLSRLTDQPHNNRDIELNRAKRATTNPSPPAQAPSENLTLRDVQPLKDSALHYQYVLIDLQSARLPVYTRKTFERELALEWIIPDAEEA
Q: Does B1 bind?
A: Result: binds
